Laboratory results as given in the supplement of paper PMC10567573.

B1: ZNF649 (parent)
chain: LVAHQRYHTGKTPFVCPECGQPCS

Variants of: B1
Experiment: protein stability index of a GFP-peptide fusion (GPS, HEK-293T) (PSI 1-6); higher = more stable
Details: c terminus: a fixed tail appended
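Note: lentivirally expressed fusions sorted by FACS into six bins by GFP to DsRed ratio, PSI derived from sequencing read proportions per bin multiplied by bin number.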

Protein stability index, by site and new letter:
V15: Q 3.36; W 2.67; Y 2.96; S 3.19; R 3.06; T 3.11
P17: I 2.73; K 3.37; S 3.37; C 2.98; T 3.04; N 3.48; R 2.26; V 2.59; W 2.37; H 2.86; M 2.77; A 2.84; D 3.35; Q 3.51; L 2.26; E 3.16; G 2.92; Y 2.48; F 2.16
P22: G 3.35; F 3.1; Q 4.03; M 2.9; I 3.25; K 3.6; V 3.5; R 3.28; H 3.41; L 3.13; S 3.53; A 3.58; T 3.33; D 3.69; W 2.38; C 3.85; Y 3.84; N 3.77; E 3.75
S24: F 3.71; K 3.23; A 2.94; I 2.77; D 3.76; C 3.13; G 3.54; H 3.23; E 3.36
E18: D 3.18; W 2.7; H 2.38; M 2.58; P 1.91; G 1.8; L 2.66; N 2.34; I 2.61; K 2.54; C 2.82; R 2.18; Q 3.31; V 2.31; Y 2.27; A 2.99; F 2.56; T 2.4; S 3.11
Q21: E 3.59; A 3.06; G 3.93; W 2.97; S 2.86; L 2.74; I 2.58; D 3.67; Y 2.77; M 2.44; C 3.08; N 2.66; P 2.9; H 3.09; V 3.5; R 2.62; T 3.24; F 2.21; K 3.19
C16: I 2.14; D 3.8; M 2.72; L 2.5; K 2.75; N 2.88; E 3.01; G 2.91; Q 3.03; S 3.16; H 2.64; A 2.35; T 2.27; F 2.28; Y 2.37; P 3.48; V 2.58; W 1.86; R 2.89
C23: L 2.67; H 3.15; R 3.19; I 2.98; N 3.06; P 3.47; Y 2.31; K 3.12; Q 2.73; S 2.56; G 2.87; E 3.09; W 2.42; M 2.54; T 3.35; V 2.99; D 3.72; A 3.27; F 2.49
G20: C 2.74; H 2.88; P 3.12; Q 3.14; T 3.11; Y 2.52; K 2.86; D 3.48; R 2.52; W 2.55; F 2.85; N 3.25; V 2.47; I 2.27; E 3.07; M 3.03; A 3.06; S 3.13; L 2.59
C19: L 2.39; M 2.58; K 3.14; A 2.89; W 1.81; F 2.06; P 3.21; V 2.42; S 3.15; H 2.92; E 3.03; D 3.63; Y 2.08; G 3.05; I 2.58; T 3.26; N 2.92; Q 2.92; R 2.51
